Experimental data taken from patent US20200062840A1 (KINDRED BIOSCIENCES, published 2020).

T1: canine IL31 with C-terminal polyHis tag (canine, biotinylated at primary amine groups (NHS-LC-Biotin) or at glycan groups (Biotin-LC-Hydrazide))
T1 construct: also called biotinylated canine IL31; canine IL31 (amine-conjugated-biotin); not shown: C-terminal poly-His tag
T1 chain: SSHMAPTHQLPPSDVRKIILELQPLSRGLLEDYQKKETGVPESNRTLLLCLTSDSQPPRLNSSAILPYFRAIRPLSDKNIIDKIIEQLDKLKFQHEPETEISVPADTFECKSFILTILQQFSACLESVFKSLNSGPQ


Columns and labels:
[1] = biological target: biotinylated equine IL31 (equine); assay: BLI, biotinylated equine IL31 immobilized to the sensor; preliminary measurement; upper end of the range; preliminary measurement
Chain of biotinylated equine IL31 (equine) (chain, as listed by the source limits assumed, form in doubt): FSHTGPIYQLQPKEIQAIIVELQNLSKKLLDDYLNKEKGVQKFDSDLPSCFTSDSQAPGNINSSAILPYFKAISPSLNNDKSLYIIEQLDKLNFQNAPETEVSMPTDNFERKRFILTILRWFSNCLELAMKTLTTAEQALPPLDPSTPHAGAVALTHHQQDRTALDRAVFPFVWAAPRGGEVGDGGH

[2] = biological target: biotinylated equine IL31 (equine); assay: BLI, biotinylated equine IL31 immobilized to the sensor; preliminary measurement; lower end of the range; preliminary measurement
[3] = biological target: T1, canine IL31 with C-terminal polyHis tag; assay: BLI (Octet), canine IL31 (glycan-conjugated-biotin) on streptavidin tips, antibody at 100 nM, 2:1 model; canine IL31 (glycan-conjugated-biotin)
Experimental: (§1) The binding analysis was performed using a biosensor Octet as follows. Briefly, canine IL31 was biotinylated at primary amine groups using EZ-Link™ NHS-LC-Biotin (Thermo Scientific, Catalog No. 21336) or at glycan groups using EZ-Link™ Biotin-LC-Hydrazide (ThermoFisher Scientific, Catalog No. 21340) according to the manufacturer's instructions. The free unreacted biotin was removed from biotinylated IL31 by extensive dialysis. Biotinylated canine IL31 was captured on streptavidin sensor tips. The association of four different concentrations (400, 200, 66.6, and 33 nM) of chimeric and caninized M14 antibody and human and canine IL31 (amine-conjugated-biotin) and the association of 100 nM of caninized M14 antibody and canine IL31 (glycan-conjugated-biotin) was monitored for ninety seconds. Dissociation was monitored for 600 seconds. A buffer only blank curve was subtracted to correct for any drift. The data were fit to a 2:1 binding model using ForteBio™ data analysis software to determine the kₒₙ, koff, and the Kd. The buffer for dilutions and all binding steps was: 20 mM phosphate, 150 mM NaCl, pH 7.2.

[4] = biological target: T1, canine IL31 with C-terminal polyHis tag; assay: BLI (Octet), canine IL31 (amine-conjugated-biotin) on streptavidin tips, antibody at 400, 200, 66.6 and 33 nM, 2:1 model; canine IL31 (amine-conjugated-biotin)
Experimental: as §1

Row | Binder | Kd [1] [nM] | Kd [2] [nM] | Kd [3] [nM] | koff [3] [s⁻¹] | Kd [4] [nM]
1 | mouse monoclonal antibody M14 (antibody, V domains shown) VH: EVQLQESGPSLVKPSQTLSLTCSVTGDSITSGYWNWIRKFPGNKLEYMGYISYSGITDYNPSLKSRISITRDTSKNQYYLQLNSVTTEDTATYYCARYGNYGYAMDYWGQGTSVTVSS VL: DIVLTQSPASLAVSLGQRATISCRASESVDTYGNSFMHWYQQKSGQSPKLLIYRASNLESGIPARFGGSGSRTDFTLTIDPVEADDVATYYCQQSYEDPWTFGGGTKLEIK | < 50 | > 10 | – | – | –
2 | caninized M14 IgG-B (antibody, V domains shown, canine IgG-B heavy chain and canine light chain constant region; also called caninized M14 antibody) VH: EVQLVESGPSLVKPGGSLRLTCSVTGDSITSGYWNWIRKFPGNKLEYMGYISYSGITDYNPSLKSRITISRDTSKNQYYLQLNSVTTEDTATYYCARYGNYGYAMDYWGQGTLVTVSS VL: DIVMTQSPASLSVSLGQRATISCRASESVDTYGNSFMHWYQQKPGQSPKLLIYRASNLESGIPARFGGSGSGTDFTLTIDPVQADDVATYYCQQSYEDPWTFGGGTKLEIKR | – | – | < 0.001 | < 1e-07 | < 0.01
